The target of this experiment is T1, C4.4a on A549 cells transfected with the sequence for the complete C4.4a receptor (Homo sapiens).
T1 chain: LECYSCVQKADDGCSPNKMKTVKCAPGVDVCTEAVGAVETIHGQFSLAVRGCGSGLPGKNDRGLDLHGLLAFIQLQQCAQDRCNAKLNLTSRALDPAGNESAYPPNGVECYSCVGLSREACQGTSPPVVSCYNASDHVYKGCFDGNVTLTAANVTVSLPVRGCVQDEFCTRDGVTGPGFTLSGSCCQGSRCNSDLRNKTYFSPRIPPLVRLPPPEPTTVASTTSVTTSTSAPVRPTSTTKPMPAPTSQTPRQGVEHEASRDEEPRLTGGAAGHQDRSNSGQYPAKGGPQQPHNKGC
As to the kind of experiment: cell-based or functional assay.

B1: ADC of Example 49 (antibody, V domains shown)
VH: EVQLLESGGGLVQPGGSLRLSCAASGFTFSSAWMSWVRQAPGKGLEWVSYISSSGSTIYYADSVKGRFTISRDNSKNTLYLQMNSLRAEDTAVYYCAREGLWAFDYWGQGTLVTVSS
VL: QSVLTQPPSVSGAPGQRVTISCTGSSSNIGAGYVVHWYQQLPGTAPKLLIYDNNKRPSGVPDRFSGSKSGTSASLAISGLRSEDEADYYCAAYDDSLSGPVFGGGTKLTVLG
modifications: toxophore-linker on Cys (via S); toxophore-linker on Cys (via S)
For the molecule B1, the “IC50 [nM] A549: C4.4a (cell viability)” value is 0.076 nM.

B2: ADC of Example 53 (antibody, V domains shown)
VH: EVQLLESGGGLVQPGGSLRLSCAASGFTFSSAWMSWVRQAPGKGLEWVSYISSSGSTIYYADSVKGRFTISRDNSKNTLYLQMNSLRAEDTAVYYCAREGLWAFDYWGQGTLVTVSS
VL: QSVLTQPPSVSGAPGQRVTISCTGSSSNIGAGYVVHWYQQLPGTAPKLLIYDNNKRPSGVPDRFSGSKSGTSASLAISGLRSEDEADYYCAAYDDSLSGPVFGGGTKLTVLG
modifications: toxophore-linker on Cys (via S); toxophore-linker on Cys (via S)
As for B2, the “IC50 [nM] A549: C4.4a (cell viability)” value worked out at 0.046 nM.

B3: ADC of Example 52 (antibody, V domains shown)
VH: EVQLLESGGGLVQPGGSLRLSCAASGFTFSSAWMSWVRQAPGKGLEWVSYISSSGSTIYYADSVKGRFTISRDNSKNTLYLQMNSLRAEDTAVYYCAREGLWAFDYWGQGTLVTVSS
VL: QSVLTQPPSVSGAPGQRVTISCTGSSSNIGAGYVVHWYQQLPGTAPKLLIYDNNKRPSGVPDRFSGSKSGTSASLAISGLRSEDEADYYCAAYDDSLSGPVFGGGTKLTVLG
modifications: toxophore-linker on Cys (via S); toxophore-linker on Cys (via S)
As for B3, the “IC50 [nM] A549: C4.4a (cell viability)” value was found to be 0.04 nM.

B4: ADC of Example 55 (antibody, V domains shown)
VH: EVQLLESGGGLVQPGGSLRLSCAASGFTFSDYQMTWIRQTPGKGLEWVSGISWNGGSTHYADSVKGRFTISRDNSKNTLYLQMNSLRAEDTAVYYCAKGDYLVYSSYYFKSWGQGTLVTVSS
VL: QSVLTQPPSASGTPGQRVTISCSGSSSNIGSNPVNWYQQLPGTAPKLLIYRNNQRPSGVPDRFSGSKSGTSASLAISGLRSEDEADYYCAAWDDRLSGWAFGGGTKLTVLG
modifications: toxophore-linker on Cys (via S); toxophore-linker on Cys (via S)
In the case of B4, the “IC50 [nM] A549: C4.4a (cell viability)” value turned out to be 0.053 nM.

These data come from US8992932B2 (Seattle Genetics, Inc., dated 2015).
